Reference: the nanobody polyreactivity screen of Harvey et al. (2022)

Assay: yeast display, Sf9 membrane polyspecificity reagent, FACS + sequencing; frameworks hold sequencing errors
In short: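 Synthetic nanobody libraries on Saccharomyces cerevisiae BJ5465 were galactose-induced for 36–48 hours, stained 1 hour at 4 °C with 10% biotinylated, detergent-solubilized Sf9 membrane reagent and enriched on streptavidin microbeads. FACS then separated cells into low and high (top ~1%) gates by anti-HA (expression) and streptavidin (reagent binding) fluorescence. Genes were colony-PCR amplified, MiSeq 2 × 250 sequenced and CDR-length filtered. A clone's polyreactivity label is that of its gate of origin.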

| Sequence | polyreactivity (PSR sort gate) |
| --- | --- |
| QGQLVESGGGLVQAGGSLRLSCAASGGIFIFYAMGWYRQAPGKERELVAAISNVSSTNYADSVKGRFTISRDNAKNTVYLQMNSLKPEDTAVYYCNAVGVPSEYYSWGQGTQVTVSS | low polyreactivity |
| QGQLVESGGGLVQAGGSLRLSCAASGGTFLWNAMGWYRQAPGKERELVAAIRWSGARTYYADSVKGRFTISRDNAKNTVYLQMNSLKPEDTAVYYCASENYWYWPYNGMYYWGQGTQVTVSS | high polyreactivity |
| QGQLVESGGGLVQAGGSLRLSCAASGLIFTYYDMGWYRQAPGKERELVAAISRRGTSTYYADSVKGRFTISRDNAKNTVYFQMNSLKPEDTEVYYCAADYYYFDSQQGMDYWGQGTQVTVSS | high polyreactivity |
| QGQLVESGGGLVQAGGSLRLSCAASGLTFGYYDMGWYRQAPGKERELVAAITVRGGSTYYADSVKGRFTISRDNAKNTVYLQINSLKPEDTAVYYFNKRLFWSRHYYYWGQGTQVTVSS | high polyreactivity |
| QGQLVESGGGLVQAGGSLRLSCAASGLTFSPNAMGWYRQEPGKERELVAAISSSGGRTNYADSVKGRFTISRDNAKNPVYLLMNSLKPEDTAVYYCFTNSFYEDDDWGQGTQVTVSS | high polyreactivity |
| QGQLVESGGGLVQAGGSLRLSCAASGRIFNRNAMGWYRQAPGKERELVAAITRGGRTNYADSVKGRFTISRDNAQNTVYLQMNSLKPEDTAVYYCAAAYYGSHGRYDYWGQGTQVTVSS | high polyreactivity |
| QGQLVESGGGLVQAGGSLRLSCAASGRIFSYNTMGWSRQAPGKERELVAAISTSGGSPYYADSVKGRFTISRDNAKNTVYLQMNSLTPEDTAVYYCNTVWTFRTSSNYDFWGQGTQVTVSS | low polyreactivity |
| QGQLVESGGGLVQAGGSLRLSCAASGRIFTRYALGWYRQAPGNEREFVARSTGSGGRTYYADSVKGRFSISRDNAKNTVYLQMNSLKPEDTAVYYCNARRPSWHSYDYGYADYYWGQGTQVTVSS | high polyreactivity |
| QGQLVESGGGLVQAGGSLRLSCAASGRIFVKNAMGWYRQAPGKERELVAAINWRGTSTYYADSVKGRFTISRDNAKNTVYLQMNSLKPEDTAVYYCNRVLGYPYGVDYWGQGTQVTVSS | high polyreactivity |
| QGQLVESGGGLVQAGGSLRLSCAASGRIFYRTAMGWSSQAPGQERELVAVISGSGGRTYYADSVKGRFTIARDNAKNTVYLQMNSLKPEDTAVYYCARRAAYYSYLYSHYPWSYYYWGPGTQVTVSS | high polyreactivity |
| QGQLVESGGGLVQAGGSLRLSCAASGRTFIGNVMGWYRQAPGKERELVAAISKSGTRTYYADSVKGRFTISRDIAKNTVYLQMNSLKPEDTAVYYCAASSYTHKRYPSPYDYWGQGTQVTVSA | high polyreactivity |
| QGQLVESGGGLVQAGGSLRLSCAASGRTFPRYAMGWYRQAPGKERELVAVISFSGDSTSYADSVKGRFTISRDNAKNTVYLQMNSQKPEDTAVYYCKADYKSTVVRYSGSRNYWGQGTQVTVSS | low polyreactivity |
| QGQLVESGGGLVQAGGSLRLSCAASGRTFYYNGMGWYRQAPGKERELVATITNGGSTNYADSVKGRFTISRDNAKNTVYLQMNSLKPEDTAVYYCAKTLASDCYDYWGQGTQVTVSS | low polyreactivity |
| QGQLVESGGGLVQAGGSLRLSCAASGSIFGINAMGWYRQAPGKERELVAAISGSTSRTYYADSVKGRFTISRDNAKKTVYLQMNSLKPEDTAVYYCAVVGLRSVTRRSDYWGQGTQVTVSS | high polyreactivity |
| QGQLVESGGGLVQAGGSLRLSCAASGSIFPVYAMGWYRQAPGKEREFVARIRFSGGRTYYADSVQGRFTISRDNAKNTVYLQMNSLKPEDTAVYYCAKAQYSGRYGYWGQGTQVTVSS | high polyreactivity |
| QGQLVESGGGLVQAGGSLRLSCAASGSIIRSYAMGWYRQAPGKERELVASISRRGGSTYYADSVKGRFTISRDNAKNTVYLQMNSLKPEDTAVYYCAAVRYNSRVSTTPSEMYYWGQGTQVTVSS | low polyreactivity |
| QGQLVESGGGLVQAGGSLRLSCAASGSTFPSYAMGWYRQAPGKERELVAAISRRSSRTYYADSVKGRFTISRDNAKNTVYLQMNSLKPEDTAVYYCNADAGRHSDEYGYDYWGQGTEVTVSS | high polyreactivity |
| QGQLVESGGGLVQAGGSLRLSCAASGSTVPQYAMGWYRQAPGKERELVAVITDSGGSTYYADSVKGRFTISRDNAKNTVYLQMNSLKPEDTAVYYCAARRWSPRSGLGYGYWGQGTQVTVSS | high polyreactivity |
| QGQLVESGGGLVQAGGSLRLSCAASGYTFNYNTMGWYRQAPGKVRELVAAINTSGSTYYADSVKGRFTISRDNAKNTVYLQMNSLKPEDTAVYYCAVRVAYKYNYWGQGTQVTVSS | high polyreactivity |
| QGQLVESGGGLVQAGGSLRLSCAATGLIFDTNAMGWYRQAPGKERELVAAINSTGSTNYADSVKGRFTISRDNAKNTVYLQMNSLKREDTAVYYCAVEYDSSAQPRTEFDYWGQGTQVTVSS | low polyreactivity |
| QGQLVESGGGLVQAGGSLRLSCPASGYIFWTNNMGWYRQSPGKERELVAAISYSGSSTYYADSVKGRFTISRDNAKNTVYLQMNSLKPEDTAVYYCAKKVRRYPTRYDSWGQGTQVTVSS | high polyreactivity |

| Sequence | polyreactivity (PSR sort gate) |
| --- | --- |
| QGQLVESGGGLVQAGGSLRLTCAASGFSFFDYAMGWYRQAPWKERELVAAISWDGDNTYYADSVKGRFTISRDNAKYTVYLQMNSLKPDDSAVYYCNADYENYEQFFDYWGQGTQVTVSS | high polyreactivity |
| QGQLVESGGGLVQAGGSLRLTCAASGLTFWWYAMGWYRQAPGKERELVAAISSSGGSTYYADSVKGRFTISRDNAKNTVYLQMNSLKPEDTAVYYCAADGGFEYEYDYWGQGTQVTVTS | low polyreactivity |
| QGQLVESGGGLVQAGVSLRLTCAASGSTFLTNSMGWYRQAPGKEREFVAAISRTGGSTYYADSVKGRFTISRDNAKNTVYLQMNSLKPEDTAVYYCAVYPYGRWLNYWGQGTQVTVSS | high polyreactivity |
| QGQLVESGGGLVQGGGSLRLSCAACGSTLPSSARGWYIQAPGKDRELVAALRSGGTTNYADSVKGRFTISRDNAKNTVYVQMNSLKPEDTAVYYCATSRYLYWRSRYDYWGQGTQVTVSS | high polyreactivity |
| QGQLVESGGRLVQAGGSLRLSCAASGFTFDSYAMAWYRQAPGKERELVASISSSGSTNYADSVKGRFTISRDNAKNTVYLQMNSLKPEDTAVYYCAAVSRYPFIYEYWGQGTQVTVSS | low polyreactivity |
| QGQLVESGRGLVQAGGSLRLSCAASGRIFVIYDIGWYRQAPGKEREFVAAISWRSGSTYYADSVKGRFTISRDNAKNTVYLQMNSLKPDDTAVYDCNKDYHVRYYYWGQGTQVTVSS | low polyreactivity |
| QGQLVESGVGLVQAGGSLSLSCAASGSILNNYAMAWYIQAPGKERELVAAISSSGGTNYADSVKGRFTISRDNAKNTVYLQMNSLKPEDTAVYYCNADVLDGGYDYWGQGTQVTVSS | low polyreactivity |
| QGQLVESRGGLVQAGGRLRLSCAASGAIVSKNAMGWYRQAPGKERELVAAISRSAGSTYYADSVKGRFTISRVNAKNTVYLQLHSLKPEDTAVFYCAADWYYWQLWWGEGDYWGQGTQVTVSS | low polyreactivity |
| QGQLVESRGGLVQAGGSLRLSCAASGRTFYYYGMGWYIQAPGKERELVATINSGASTYYADSVKGRFTISRDNAKNTVYLQINSLKPEDTAVYYCDAAKENGKYDYWGQGTQVTVSS | high polyreactivity |
| QGQLVESWGGLVQAGGSLRLSSDASGRTFSLYAMGWYRQAPGKQTELVASITDSTGGSTYYADSVKGRFTISRDNAKNTVYLQMNSLKPADTAVYYSAAQDYQYSDYQWWFGFWGQGTQVTVSS | low polyreactivity |
| QGQLVETGGGLGQAGGSLRLSCAASGRIFPTNAMGWSRPAPGKERELVAAIPVSGGSTFYADSVKGRFTISRDNAKNTVYLQLNSLKPDDTAVDDCAVDDRASVGSRLDHWGQGTQVTVSS | low polyreactivity |
| QGQLVVSGGGLVQAGGSLRLSCAASGRTFSVNAMGGYRQAPGKERELVAAITSGASTNYADSVKGRFTISRDNAKNTVYLQMNSLKPEDTAVYYCAADATYGHVPAEYDYWGQGTQVTVSS | low polyreactivity |
| QGQRVESAGGLVQAGGSLRLSCDASGRIFDNYAMGWSSPAPGKERELVAAISRAGNTYADSVKGRVTISRDNAKNTVNLQMNSLNPEETAVFYCAARLYWGRYNYWGQGTQVTVSS | high polyreactivity |
| QGQRVESGGGLVQAGGSLRLSCAASGRIFRGYDMGWYRQSPGKERELVAAISGSGGSTYYADSVKGRFTISRDYAKNSVYLQMNSLQPEDTAVYYCAADQQSTGDWAGDYWGQGTQVTVSS | low polyreactivity |
| QGQRVESGGGLVQAGGSLRLSCAASGSIFHGYAMGWDRQAPGKERELVADITSGGGTYYADSVKGRFTISRDNAKTTVYLQMNSLKPEDTAVYYCATQKSRRYGYWVQGTQVTVSS | low polyreactivity |
| QHQLVESGGGLVQAGGSLRLSCAASGRTFYWNAMGWYRQAPGKERELVAGISNGGTTTYYADSVKGRFTISRDNAKNTVYLQMNSLKPEDTAVYYCAADIWYFDYDYWGQGTQVNVSS | high polyreactivity |
| QIQLVESGGGLDQAGGSLRLSCAASGSNFVWNAMGWSRQAPGKERELVAAISYTDGSTYYADSVKGRFTISRDNAKNTVYLQMNSLKREDTAVYYCAAAITPSYTGSQYDYWGQGTQVTVSS | low polyreactivity |
| QIQLVESGGGLLQAGGSLGLSCAASGSIFVKYAMGWYRQAPGKERELVAAITTGVGSTYYADSVKGRFTISRDNAKNTVYLQMNSVKPEDSAVFYWNAYAYFGPWWSFRATYDYWGQGTQVTVSS | low polyreactivity |
| QIQLVESGGGLVQAGGSLRLSCAASGFTFYANAMGWYRQAPGKERELVAAISSSGGSTYYADSVKGRFTISRDNAKNTVYLQMNSLKPEDTAVYYCNVYSRHWYRYEFDYWGQGTQVTVSS | high polyreactivity |
| QIQLVESGGGLVQAGGSLRLSCSASGSISGYYSRRWYRQAPGKQSEFVASIRYTGARTYYADSVKGRFTISLDNAKNTVYLQMNSLIAEDTAVYFWAADVKRDSVWGGDYWGQGNQVTVSS | low polyreactivity |
